Laboratory results reported in PMC5038921 (Journal of biomolecular screening, 2016).
Values belong to the molecule of their own block, whether it stands above or below them.

Tests used:
[1] = molecular target: T1, RMI core complex (RMI1 OB2 domain with RMI2) (Homo sapiens, UniProt Q96E14+Q9H9A7); test: ITC; assay type: binding
T1 sequence (Q9H9A7 473-625 limits assumed): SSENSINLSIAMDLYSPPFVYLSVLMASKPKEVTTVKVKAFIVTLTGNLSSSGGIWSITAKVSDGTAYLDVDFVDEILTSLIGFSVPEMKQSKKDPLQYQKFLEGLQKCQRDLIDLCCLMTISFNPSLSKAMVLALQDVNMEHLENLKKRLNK
T1 sequence (Q96E14 1-147): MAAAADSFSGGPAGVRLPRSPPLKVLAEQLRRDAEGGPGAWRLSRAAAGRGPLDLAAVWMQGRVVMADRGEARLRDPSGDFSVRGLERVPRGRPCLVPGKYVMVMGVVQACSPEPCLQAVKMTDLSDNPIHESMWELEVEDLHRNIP

[2] = molecular target: RMI core complex (OB2 domain of RMI1 and the entirety of RMI2) (UniProt Q96E14); test: fluorescence polarisation
[3] = molecular target: RMI core complex with a N-terminal 6X-His tagged RMI2 (UniProt Q96E14); test: AlphaScreen or HTRF
F-MM2 MM2 (Homo sapiens) = F-MM2 MM2 (Homo sapiens) (UniProt Q8IYD8); test: FP; settings: cited from earlier work

Kd [1]: 3400 ± 1000 nM
Molecule: CCOC(=O)N1CCN(C(c2ccccn2)c2c(-c3ccccc3)n(O)c3ccccc23)CC1 (stereo not shown) [PIP-199]

IC50 [2]: 510 nM
IC50 [3]: 180 nM
Molecule: MM2 peptide from FANCM (unlabeled)

Molecule: RMI core complex core complex (from UniProt Q9H9A7)
Kd (F-MM2 MM2 (Homo sapiens)): < 5 nM
